Test results from paper doi:10.1101/388868, “Heterodimerization of UNC-13/RIM regulates synaptic vesicle release probability but not priming” (bioRxiv, 2018).

T1: C. elegans UNC-13 long isoform residues 1-258 bearing the K49E mutation (C. elegans)
T1 chain: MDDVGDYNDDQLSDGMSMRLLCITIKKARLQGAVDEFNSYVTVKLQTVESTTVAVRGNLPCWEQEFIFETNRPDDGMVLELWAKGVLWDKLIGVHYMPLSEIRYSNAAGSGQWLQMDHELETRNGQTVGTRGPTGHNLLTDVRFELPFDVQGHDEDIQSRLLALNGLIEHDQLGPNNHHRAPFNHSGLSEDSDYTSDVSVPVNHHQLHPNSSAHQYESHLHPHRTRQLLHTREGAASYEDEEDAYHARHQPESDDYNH


Assays:
[1] = biological target: the molecule itself; experiment: SEC; gel filtration of purified UNC-13L C2A, wild type or K49E; calibrated with alcohol dehydrogenase (150 kDa), bovine serum albumin (66 kDa) and carbonic anhydrase (29 kDa); void volume 10.78mL
[2] = biological target: T1, C. elegans UNC-13 long isoform residues …; experiment: ITC

| Ka [2] [M⁻¹] | Binder | stoichiometry N [1] |
| --- | --- | --- |
|  | UNC-13L C2A domain, wild type (recombinant, gel filtration) (domain or fragment) MDDVGDYNDDQLSDGMSMRLLCITIKKARLQGAVDEFNSYVTVKLQTVKSTTVAVRGNLPCWEQEFIFETNRPDDGMVLELWAKGVLWDKLIGVHYMPLSEIRYSNAAGSGQWLQMDHELETRNGQTVGTRGPTGHNLLTDVRFELPFDVQGHDEDIQSRLLALNGLIEHDQLGPNNHHRAPFNHSGLSEDSDYTSDVSVPVNHHQLHPNSSAHQYESHLHPHRTRQLLHTREGAASYEDEEDAYHARHQPESDDYNH | 2 |
| 789000 | C. elegans UNC-10 residues 62-121 WT (domain or fragment) KLVGTQDDAICQICQKTKFADGIGHKCFYCQLRSCARCGGRAQSKNKAIWACSLCQKRQQ |  |
